PMC5772059

Molecular target: N2Bus phosphorylated by PKA catalytic subunit or cGMP-activated PKG
Test: pull-down; GST pull-down: purified protein incubated with a GST-fusion protein immobilised on glutathione sepharose beads, 4 °C, 1.5 h; washes in high and low salt buffer; SDS-PAGE and western blot

- fold binding against unphosphorylated N2Bus: 2 to 3 times
B1: recombinant human full-length PP5 (enzyme)
chain: MAMAEGERTECAEPPRDEPPADGALKRAEELKTQANDYFKAKDYENAIKFYSQAIELNPSNAIYYGNRSLAYLRTECYGYALGDATRAIELDKKYIKGYYRRAASNMALGKFRAALRDYETVVKVKPHDKDAKMKYQECNKIVKQKAFERAIAGDEHKRSVVDSLDIESMTIEDEYSGPKLEDGKVTISFMKELMQWYKDQKKLHRKCAYQILVQVKEVLSKLSTLVETTLKETEKITVCGDTHGQFYDLLNIFELNGLPSETNPYIFNGDFVDRGSFSVEVILTLFGFKLLYPDHFHLLRGNHETDNMNQIYGFEGEVKAKYTAQMYELFSEVFEWLPLAQCINGKVLIMHGGLFSEDGVTLDDIRKIERNRQPPDSGPMCDLLWSDPQPQNGRSISKRGVSCQFGPDVTKAFLEENNLDYIIRSHEVKAEGYEVAHGGRCVTVFSAPNYCDQMGNKASYIHLQGSDLRPQFHQFTAVPHPNVKPMAYANTLLQLGMM
